Experimental findings from the nanobody polyreactivity screen of Harvey et al. (2022) are described below.

A short description of this data set: yeast display, Sf9 membrane polyspecificity reagent, FACS + sequencing; frameworks hold sequencing errors. The procedure, abridged: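 Nanobodies from a synthetic yeast display library (Saccharomyces cerevisiae BJ5465), induced 36–48 hours with galactose, were stained 1 hour at 4 °C with 10% biotinylated, detergent-solubilized Sf9 membrane reagent, enriched on streptavidin microbeads, then FACS-sorted. Anti-HA (expression) and streptavidin (reagent binding) fluorescence set low and high (top ~1%) gates. Polyreactivity labels come from the gate of origin. Genes were colony-PCR amplified, MiSeq 2 × 250 sequenced and filtered by CDR length.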
“QVQLVESGGALVHAGGSLRLSCAASGSILKTYAMGWYIQAPGKEREFVAAMSSGGSTYYADSVKGRFTISRDNAKNTVYLQMNSLKPEDTAVYYCAADPWGDFVSFASYYYWGQGTQVTVSS”: the “polyreactivity (PSR sort gate)” value was “low polyreactivity”.

As for “QVQLVESGGALVQAAGSLRLICAASVIISGCNGMGWYRQAPGKERELVASISDSGSSTYYADSVKGRFTISRDNAKNTVYLQMNSLKPEDTAVYYCATDLLASRYGYWGQGTQVTVSS”, the “polyreactivity (PSR sort gate)” value was “low polyreactivity”. For “QVQLVESGGALVQAGGRLLLSCAASGRTFQGYVMGWYRQAPGKERELVAAISRGTSTYYADSVKGRFTISRDNAKNTVYLQMNSLKPEDTAGYYCAADGERRHYWGQGTQVTVSS” the value was “low polyreactivity”; for “QVQLVESGGALVQAGGSIRLSCAASGFISRKNALGWYSQAPGKERELVATITKSGDTTYYADSVKGRFTISRDNAKNTVYLQMNSLKPEETAVYYCAAPLYYIGSWDYYVRYIYDYWGQGTQVTVSS”, “low polyreactivity”; for “QVQLVESGGALVQAGGSLRISCAASGSIFPQNAMGWYRQAPEKERELVAAITTGGGRTYYADSVKGRFTISRDNVKNTVYLQMNSLKPEDTAVYYCYIRWPFRHYGSWGLGTQVTVSS”, “high polyreactivity”.

For the sequence “QVQLVESGGALVQAGGSLRLRCAASGTFFIYAMGWYRQAPGKEREFVATISTGGSTNYADSVKGRFTISRDNAKNTVYLQMNSLKPADTAVYYCAAEWLYPHDGGYRRPMDYWGQGTKVTVSS”, the “polyreactivity (PSR sort gate)” value is recorded as “low polyreactivity”.

Take “QVQLVESGGALVQAGGSLRLSCAACGRTFWYNAMGWYRQAPGKERELVAAITRGGGRTYYADSVKGRFTISRDNAKNTVYLQMNSLKPEDTAVYYCAADSYYDMNYWGQGTQVTVSS”: the “polyreactivity (PSR sort gate)” value is given as “low polyreactivity”.

For “QVQLVESGGALVQAGGSLRLSCAASGFFIFTYAMGWYRQAPGKERELVAAISSRGGSTYYADSVKGRFTISRDNAKNTVYLQMNRLKPEDTAVYYCAAQAYGRYPYGYWGHGTQVTVSS”, the “polyreactivity (PSR sort gate)” value is reported as “high polyreactivity”.

As to “QVQLVESGGALVQAGGSLRLSCAASGFILNKNVMGWYRQPPRKERELVAAITGSGGRTYYADSVKGRFTISRDNAKNTVYLQMNCLKPEDTAVFYCNALPGTQYNYWGQGTQVTVSS”, the “polyreactivity (PSR sort gate)” value was “high polyreactivity”.

Regarding “QVQLVESGGALVQAGGSLRLSCAASGFIVDAYAMGWYRQAPGKERELVAALTRGNTYYADSVKGRFTISRDNAKNTVYLQMTSLKPEDTGVSCCAARSWQSYRSQVTHSSTLDYWGQGTQVTVSS”, the “polyreactivity (PSR sort gate)” value was “low polyreactivity”.

For “QVQLVESGGALVQAGGSLRLSCAASGFTFYKNAMGWYRQAPGKERELVAAISRSAGSTYYADSVKGRFTISRDNAKNTVYFQMNSLKPEDTAVYYCNAVSDVKRYDYWGQGTQVTVSS”, the “polyreactivity (PSR sort gate)” value is on record as “high polyreactivity”.

In the case of “QVQLVESGGALVQAGGSLRLSCAASGIIFGGYALGWYRQEPGKERELVAAISCGGSTNYADSVKGRFTISRDNAKNTVYLQMNSLKPEDTSVYYCAADSASSYSYNYWGQGSQVTVSS”, the “polyreactivity (PSR sort gate)” value was “low polyreactivity”. As for “QVQLVESGGALVQAGGSLRLSCAASGITFEVYAMGLYRQAPGKAREFVAAITGSGSRTYYADSVKGRFTISRDNAKNTVYLQMNSLKPEDTAVYYCAVKGFSTRSYREFDYWAQGTQVTVSS”, the entry is “low polyreactivity”. As for “QVQLVESGGALVQAGGSLRLSCAASGLTFRDNAIGWYRKAPGKERELVDAISTNGGSTYYADSVKGRFTISRDNAKNTVYLQMYSLKPEVTAVYYCAADYDYQYRYYYWGQGTQVTVTS”, the entry is “low polyreactivity”. For “QVQLVESGGALVQAGGSLRLSCAASGPIFGVYAMGWYRQAPGKERELVAAITYTGASTYYADSVKGRFTISRDNAKNTVYLQMNSLKPEDTAVYYCAGRLWRRSRFDYWGQGTQVTVSS” the value was “high polyreactivity”; for “QVQLVESGGALVQAGGSLRLSCAASGRTFVSYVMGWYRQAPGKEREMVAAISGNGGRTYYADSVKGRFTISRDYAKKTVYLQMNSLKPEDTAVFYCAAELFVSYFDVLMYYWGQGTQVTVSS”, “high polyreactivity”; for “QVQLVESGGALVQAGGSLRLSCAASGRTFWRNTMGWYRQAPGKEREFVAAITFSGVRTYYADSVKGRFTISRDNAKNTVYLQMNSLKPQDTAVYYCAKSRQYIGGFDYWGQGTQVTVSS”, “high polyreactivity”. Take “QVQLVESGGALVQAGGSLRLSCAASGRTINYYAMGWYRQAPGKERELVAAITWSGSSTYYADSVKGRFTISRDNAKYTVYLQMNSLKPEDTAVYYCNKASYTGYRSKRFYYWGQGTQVTVSS”: the “polyreactivity (PSR sort gate)” value was “high polyreactivity”. For “QVQLVESGGALVQAGGSLRLSCAASGRTLESNAMGWYRQTPGKERELVAAISTIGGTYYADSVKGRFTLSRDNAKNTVYLQMNSLKPEDTAVYYCAKVWYDHSYIPIYDSWGQGTQVTVSS” the value was “low polyreactivity”. As for “QVQLVESGGALVQAGGSLRLSCAASGSIFRYNAMGWYRQAPGKEREFVAIISYSGVRTYYADSVKGRFTISRDNAKNTVYLQMNSLKPADTAVYYCAADFKQKGHRTRTTYWGQGTQVTVSS”, the entry is “high polyreactivity”.

Consider “QVQLVESGGALVQAGGSLRLSCAASGSIFVSYAKGWSRPAPGKERELLATITTSTGSTYADSVKGRFTISRDNAKNTVYLQMNSLKPEDTAVYYCAARYQPWLKYDFDSWGQGTQVTVSS”, for which the “polyreactivity (PSR sort gate)” value is “low polyreactivity”. Regarding “QVQLVESGGALVQAGGSLRLSCAASGSILDPKAMGWYRQAPGKERELVASISRGDNTYYADSVKGRFTISRDNAKNTVYLQMNSLKPEDSAVYYCAADYSWVVWHDYWGQGTQVTVSS”, the “polyreactivity (PSR sort gate)” value is given as “low polyreactivity”. As for “QVQLVESGGALVQAGGSLRLSCAASGSTFAYYAMGWSRPAPGKERELVAAITRGGRTNYADSVKGRFTISRDNAKNTVYVQMNSLNREDTAVYYCAARSGRSWLTCSYDYWGQGTQVTVSS”, the entry is “high polyreactivity”; as for “QVQLVESGGALVQAGGSLRLSCAASGSTFLNYAMRGYRQATGKARELVAGINSGGSTNYADSVKGRFTISRDNAKNTVYLQMNSLKPEDTAVYYCAGDRVGNEYDYWGQGTQVTVSS”, “low polyreactivity”; as for “QVQLVESGGALVQAGGSLRLSCAASGSTLAYNAMGWYRQAPGKERELVAGIRGSGGSTYYADSVKGRFTISRDNAKNTVYLQMNSLKPEDTAVYYCNADSSVGHPPDGEYWGQGTQVTVSS”, “low polyreactivity”.

On to “QVQLVESGGALVQAGGSLRLSCAASGYIFPGNAMGWYRQAPGKEREVVAGITSSGTSTYYADSVKGRFTISRDNAKNTVYLQMNSLKQEDTAVYYCAADALWGTGSGFDYWGQGTQVTVSS”, for which the “polyreactivity (PSR sort gate)” value is “low polyreactivity”. As for “QVQLVESGGALVQAGGSLRLSCAASRFTFTRYVMGWYSQAPGKERELVAAISINGGRTYYADSVKGRFTISRDNAKNTVYLQMNSLKPEDTAVYDCAAERYYWYTEMGYWGQGTQVTVSS”, the entry is “high polyreactivity”; as for “QVQLVESGGALVQAGGSLRLSCSASGSTLPGYAMVWYRQAPGKERELVAGISTRGGNTYYADSVKGRFTISRDNAKNTVYGQLNSLNPEDTAVYYCATTSSWRYGYWGEGTQVTVSS”, “high polyreactivity”; as for “QVQLVESGGALVQAGGSLRLSSAASGITFSRYAMGWYRQAPGKERELVARISSSGGSTNYADSVKGRFTISRDNAKNTVYLQMNSLKPEDTAVYYCAGATRGKVARRVTFDYWGQGTQVTVSS”, “high polyreactivity”.

Take “QVQLVESGGALVQAGGSLRLTCAASGRIYTRYAMGWNRKATGKERELVAVITRSGGSTYYADSVKGRFTISRDNGKNTVYLQMNSLNPEVTAVYDCAAKYYGEMYYWGQGTQVTVSS”: the “polyreactivity (PSR sort gate)” value is given as “low polyreactivity”.

With “QVQLVESGGALVQAGGSLRLTCAYSGSTSYNNAMGWYRHAPGKERELYASLYMSAGSTYYADSVKGRFKISRDNEKNTVYLQMNSLKPEDTAVYYCAAESVAILGLVDPKGYGYWGQGTQVTVSS”, the “polyreactivity (PSR sort gate)” value is listed as “low polyreactivity”. As for “QVQLVESGGALVQEAGSLRLRCAASGSIFDYKGMRWSRPAPGKERELVAAITSSGGSTYYADSVKGRFSISRDNAKNTDYLQMNSLIPEVSAFYYCAVDILYFPASYATQPVDYWGQGTQVTVSS”, the entry is “low polyreactivity”; as for “QVQLVESGGCIVQAGGSLRLSCAASGLNLDGYAMGWYRQAPGKERELVAAITRSGGRTYYADSVKGRFTISRDNANNTVYLQMNSLKPEDTAVYYCAALGWSVRYRYDYWGQGTQVTVSS”, “high polyreactivity”. For “QVQLVESGGCIVQAGGSLRLSCAASGNIFAYNGKVWYRQAPGKERELVAAIRGSGTRTYYAESVKGRFTISRDNAKNTVYLHMNSLKPEDTAVYYCSARYFGTARTNYGYWGQGTQVTVSS” the value was “high polyreactivity”. For “QVQLVESGGCLFQAGGSLRLSCAASGNIFLYYAMGWYRQAPGKERELVADIDSSGASTYYADSVKGRFTISRDNAKNTGYLQMNSLIPEDTAVYDCDKDSNRYSYYSPYDSWGQGTQVTVSS” the value was “low polyreactivity”; for “QVQLVESGGCLVPAGGSLRLSCAASGFIIDWYDMAWYRQAPGKERELVAAITRSAGRTYYADSVKGRFTISRDIAKITVYLQMNSLKPEDTAVYYCAARSSSAGGGDGYWGQGTQVTLSS”, “high polyreactivity”. For “QVQLVESGGCLVPAGGSLRLSGAASGSTYHFYAMGWYRHAQGKERELVASITSRGGNTHYADSVKGRFRISRDNAKNTVYFQMNSLKPEVTAVYSCAASGGWYGTYDYWGQGTQVTVSS”, the “polyreactivity (PSR sort gate)” value is on record as “low polyreactivity”. In the case of “QVQLVESGGCLVQAGCSLRLSCAASGSTLWWYDMGWYRQAPGKERELVAAINSGGSTNYADSVKGRFTISRDNAKNTVYLQMNSLKAEDTAVYYCNTDGEVTYDYWGQGTQVTVSS”, the “polyreactivity (PSR sort gate)” value is “low polyreactivity”. As for “QVQLVESGGCLVQAGGRLRLSCAASGRIFHDNGMGWYRQAPGKERELVAAISRGGSTYYADSVKGRFTISRDNAKNTVYLQMNSRKPEDTAVYYCNVDSFRYRHTGYCDTRYGYWGQGTQVTVSS”, the entry is “high polyreactivity”. For “QVQLVESGGCLVQAGGRLRLSCAASGSTFGRNAMGWYRQAPGKERELVAAISTSDGRTYYADSVKGRFTISRDNAKNTVYLQMNSLKPEDTAVYYCAADGETLPPRILGESEGDYWGQGTQVTVSS” the value was “low polyreactivity”; for “QVQLVESGGCLVQAGGSLRLICAASGFIFTPYAMGWYRQAPGKERELVAAIRNSDGSTYYADSVKRRFTISRDTAKHSVYLQMNSLKPEDTAVFYCAKRYRGEPGGTYGYWGQGTQVNVSS”, “high polyreactivity”.
